Literature values in article PMC3826259.

Legend:
[1] = molecular target: p6*-PR precursor p6*-PR (Human immunodeficiency virus 1) (UniProt O93215)
[2] = molecular target: HIV-1 protease mature PR (Human immunodeficiency virus 1) (UniProt O93215)

Row | Substance | Kd [1] | Kd [2]
1 | p6*-PR precursor p6*-PR (from UniProt O93215) | 700 nM | 
2 | HIV-1 protease mature PR (from UniProt O93215) |  | < 5 nM
